Measurements from paper doi:10.1101/365775 (bioRxiv, 2018).

Target: the molecule itself
Assay: SEC

B1: Sec18_(His8) (natural protein, yeast, UniProt P18759 1-758, looked up)
chain: MFKIPGFGKAAANHTPPDMTNMDTRTRHLKVSNCPNNSYALANVAAVSPNDFPNNIYIIIDNLFVFTTRHSNDIPPGTIGFNGNQRTWGGWSLNQDVQAKAFDLFKYSGKQSYLGSIDIDISFRARGKAVSTVFDQDELAKQFVRCYESQIFSPTQYLIMEFQGHFFDLKIRNVQAIDLGDIEPTSAVATGIETKGILTKQTQINFFKGRDGLVNLKSSNSLRPRSNAVIRPDFKFEDLGVGGLDKEFTKIFRRAFASRIFPPSVIEKLGISHVKGLLLYGPPGTGKTLIARKIGTMLNAKEPKIVNGPEILSKYVGSSEENIRNLFKDAEAEYRAKGEESSLHIIIFDELDSVFKQRGSRGDGTGVGDNVVNQLLAKMDGVDQLNNILVIGMTNRKDLIDSALLRPGRFEVQVEIHLPDEKGRLQIFDIQTKKMRENNMMSDDVNLAELAALTKNFSGAEIEGLVKSASSFAINKTVNIGKGATKLNTKDIAKLKVTREDFLNALNDVTPAFGISEEDLKTCVEGGMMLYSERVNSILKNGARYVRQVRESDKSRLVSLLIHGPAGSGKTALAAEIALKSGFPFIRLISPNELSGMSESAKIAYIDNTFRDAYKSPLNILVIDSLETLVDWVPIGPRFSNNILQMLKVALKRKPPQDRRLLIMTTTSAYSVLQQMDILSCFDNEIAVPNMTNLDELNNVMIESNFLDDAGRVKVINELSRSCPNFNVGIKKTLTNIETARHDEDPVNELVELMTQSA
B1 was tested, and the “stoichiometry N” value was 6.
